Assay: label from the status in PepcDB records
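Note: failed if final PepcDB status was selected cloned or expressed and not failed if soluble or beyond.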

In the case of “PPKIRVVVRKRPISKKERERGDDDVVDVLAKNNTVVVNEEKVKVDLTKYLEKHAFKFDESLDENVSNEAVYQLTVGPLVRTLFRNGRASCFAYGQTGSGKTYTMSPLPIRASADIFTFMAQQQYRDISLCVSCFEIYGNKVFDLLNARKKLNILEDGKKKVVVVGLKEFGVDDVDGVKALIEESAKNRSTGSTAANADSSRSHSIMQFALKRAA”, the protein production is reported as “failed”.

With “MSGTRHQIVVALGDTRYRVDRPFGTWPQTAGKVSDVVVLRDGRVLVLLRSDPYVDPDGPRVIVLSCDGDYLGAWGDLDIADAHLMTPAPDGRLFIVDRDMHEIIVFSADGQRVGGIGTRGAPGTPFNHPTDVAFAPSGDFYVSDGYAGWHVHRFAGDGTHLATWGAFGSGRGEFLEPHSLWCLPDGRVVVVDRCNNRLQVFDADGVFLDEWTGFHRAVGIWGDDAGDIFVSDQVPSLHRISQNGTRLGRARPVLNGAHGIFGSPDGTIYLAEANPSRVSRLTPL” the protein production was “failed”.

For “RTKDGLTLYTRRWDVESPRAVICLVHGLGEHSGRYEHVARFFNENGISFAAFDLRGHGRSEGKRGHAEYQQLMDDITLFLQSLDYDCPKILYGHSMGGNLALNYILRYDPDIAGGIISAPFLALPKELPKHLFFILKLLNVVAPSIQLSNGIDPNLISRDREVVEAYVSDPLVHDKISPRFILQSLEAGKWALENADRLRKPILLIHGTADQITSYRASQEFAKRAGELCKFVSYEGFYHEPHNEPEKERVLADMLKWIEEVI”, the protein production was “failed”.

With “QNRGSLSTARSYISMGVGRVYVMKDSPNDIELTMAEGVDVGRYVDYRELAIKIADNRIDVKKNKEIINSRFKLKYKNLSSIYN” the protein production was “failed”.

With “MTAHFRPAVYDLPRDGHTVFRWEHPPQQATVELERLQRKQSLAAAFRVFARLGFDMGGAGHITVRDPGRPDHFWVNPVGVYFGHVRVRDLLLVNPEGAVIEGEGALNLAAFAIHAALHEAHPEVVAAAHAHSLYGKAWSSLGRLLDPLTQDACAFYERHGLFDNFSGVVLEASEGVRIAAALAGRKALILQNHGLLTVGETVEAAVWRFIAMDNAAQTQLLAEAAGTPRPIPHEVARHTARQVGTEFGGWFSFQPYRERIVREEPDFLDLEHHHHHH” the protein production was “failed”.

In the case of “MAKIHVLEKHVAELIAAGEVVERPSSVIKELVENSIDAGATTISVEIQRGGIAYMRVTDNGGGIAREDVPKAFLRNATSKVESAEDLDGIGTLGFRGEALASICAVSRVTLLTRTEEELAGTSYQIEGGEELALEDAGCAKGCTIVVRDLFYNTPARMKFLKKDVSEANAVAGVMDRAALSHPEISFRFVRDHKETLSTPGDRQLRSCIYAVYGKDFTAGLIPVDYAYNGIKVRGFISKPSAARPNRSMQHFFINGRFVKSKTAMVALEQAFKGSIMAGKFPSCVLHLSVPWEAVDVNVHPSKIEVRFLNEKPIFDAVYHGVKSALLSGDQRKEMILPRPKLDPPASQPEQIRLAAKPAIGSAAQETAEKEARLLTSQTEQAPNSSLGAYEKVVSSSAGRLAQPQQAPLGKAPDKAFPQTASGPAVAGTSHIGENAADKKPPSSLPGIGAAGRIPVPYEENEPEIYLPVKRQTAIPAVRDFISSPFSFSDEASKPKAAGEAPGDTGFEAAAADRGRKAEPKAQELSEEAAGEKPESSRQAAAAEPPREEAGLQPFGEKRQRLVGEAFRTYLIIEYGDDELLLIDKHAAHERILYEKLKKESGKSCAQYLLEPIPVTLDKNEYAAVLENQKLFWEAGFEVEDFGGGSVLVRSAPLSLEQEDIASSLMEIAGHLLENKTDMSTEKLDWLYHNIACRAAVKAGQITSDQELIALAVALRENPEIRYCPHGRPVSITLKKREIEKQFGRIQ”, the protein production is reported as “failed”.

For “MPTPFDVTILGGGLAGRLCAWQLAQTGVPPARIAVVERGARDGSGSAAYVAAAMLAPLAEAAVADRFVVELGLASLTLWRDWLPMLRTPVFFQQAGTLVVWHPADRGEASLFANHVRAATPPERIAADLRAVDAEGIGTLEPALAQRFSQGLYLAGEGQLDNRAVLDALATELEALGVQLRWNTAVADPHPQALAAAGLGARLVLDCRGLGAQPQWPQLRGLRGEVARIHAPDVTLTRPVRMLHPRYPIYIAPKPGHVYVIGATEIESDDMSPVSVRSTLELLSAAYAVHPAFGEARVLELCTQCRPTLPDHRPAIRWDGAGTLSVNGLYRHGYMIAPAVAQAAVAAAHALLDGRAIDAPASAWPGLFAAPASPEPVLPLEHHHHHH”, the protein production was “not failed”.

In the case of “MDTLQFQKNPETAAKMSAYMKHQFVFAGIPAPERQALSKQLLKESHTWPKEKLCQEIEAYYQKTEREYQYVAIDLALQNVQRFSLEEVVAFKAYVPQKAWWDSVDAWRKFFGSWVALHLTELPTIFALFYGAENFWNRRVALNLQLMLKEKTNQDLLKKAIIYDRTTEEFFIQKAIGWSLRQYSKTNPQWVEELMKELVLSPLAQREGSKYLAKASE”, the protein production is reported as “not failed”.

In the case of “AIAAQTERRDAPELPDFSLLKRLARDQLIFLLEQLPGKKDLFIDADLMSPLDRIANVTILKQHEVDKLYKVELKPIVSSSDQLCFLIRPRIQTVKWISDLVNSDKVAGRFRRYKIIFTPQKFYACETVLEEQGVYGDVTTDEWNFYILPLDDDILSLELPEFFRDNFLEGDQRWVTTGGGALHLLQSVYGSFSKVYGIGRCAKMVYESWRELMEEGEQRTRQPEFAKVFLIDRDVDFVTPLCSQVVYEGLVDDIFRIKCSSVEFGPDVTSSDKSIKVMLNSQDKVFNEIRNEHFSNVFGFLSQKAKNLQTAYDKRRGMDIQQMKAFVADELKGLKQEHRLLSLHIGASESIMKKKTKQDFQELLKTEHSLLEGFEIRECIAYIEEHINRQVSMIDSLRLLCLLSITENGLLSKDYRSLKAQYLQSYGIEHLLTFANLRQLGLLEEQQTGETLTVMESKVGKLVNDKTAGKLTDAFSSLAKKSNFRALSKRLALVPKSGEEYDLRVPRDMAYIFSGAYIPLSCKLIEQVLERDGWTGLEEVTRMLNGQDFAVTGGSSSSEARNKSNGQRIILVMFLGGCTYSEISALRFLGKERGCRFIVLTTAITNSGRLLEALLDKHV”, the protein production is reported as “failed”.

For “EKITILADAIPELHVEEANDKVMGSIDWEAALKQSAGKEDLAQEMLQMLVDFIPEVNEWIDKALESDISEEELCHYIHKLHGSSSYCGVPRLKQLCNLIETSLRQHQTISDIEPELFELQDEMEKVTKDANLLLSN”, the protein production was “not failed”.

In the case of “MEEWSASEACLFEEALEKYGKDFNDIRQDFLPWKSLTSIIEYYYMWKTTDRYVQQKR”, the protein production is reported as “not failed”.

In the case of “MANKVEHRLSEQQMKALTDLPLVFLITHDQSKSWPITHAISWVYAKDETTIRFAIEADSLLVKTLADHPVFTLIFFADQSTYSLTCTDVAAWETTARLPLKVALYEGQIKEVRDILFYGAAVSDRPRVYKTYDEAAAMQLDQQIQDILKG”, the protein production is reported as “not failed”.

In the case of “MAEKLLHTAESDAGIGSWVLHMESGRLEWSQAVHDIFGTDSATFDATEDAYFQRVHPDDRARVRRELDRHVLGDRPFDVEYRIVRPDGQVRELLERNHIQRQASGQVDHLWGTVIDMTEHKQ”, the protein production is reported as “not failed”.

For “MKAANSGRTAAALECFERVVKLQSTPVNWSYLAFCVARERQQFEHATRLCEEAVRREPRSSVLYLNLGKVYLLSGRKDDAIRTFRQGLLYERNTLIESELRRLGLRKPPVLNFLAREHPVNKYLGIMLKKLKIRLEHHHHHH”, the protein production was “failed”.

In the case of “MPYVPTPKPVVDRMLELADVDETDVLYDLGSGDGRIVIRAARTHGARGVGIEIDPDLVKKARKNAKEAGVADLVEFRQGDLFEADISEATVVTLYLLPSVNQKLRPILFEQLSPGTPVVSHDFDMGRWAPDRTVDLEGDTVYRWTIPEEIPEDLDELEHHHHHH”, the protein production is reported as “not failed”.

With “VNEIVVNPNATLDWQLALRQAAGKTDLARDMLQMLLDFLPEVRNKVEEQLVGENPEGLVDLIHKLHGSCGYSGVPRMKNLCQLIEQQLRSGTKEEDLEPELLELLDEMDNVAREASKILG” the protein production was “not failed”.

In the case of “MIIETERLLLRPFNEQDVDALYLMNSNPAMLKYIPTAPFTDREQARELFHNVILQDYQQRGFGRWAVEHKADNRVIGFCGPKFIPEFNEVEIGYRYFPEYWGKGIGTEAAEAALSVFPQFGIKQTIALILEGNLGSETVAKRVGMYWREHSEFMGHKINVYAKIL”, the protein production is reported as “failed”.

In the case of “MIEITFLGGGGGRFVTITQVRATGGFFIKASKNIYVDPGPGALVRMWRYKIDPRKVDVLFISHRHTDHCNDAEVLVEGMTYGVTKKRGTLIGSKSVVHGDENHTPALSKYHLDALEEVHAPNPGDRFKIGEDEMIITPSLHSDPTTIGFRLKTSYGDISYIPDTEYFEELVKWHDGARVIIAAVTRPRDMRIPFHLSSEDAVYLLKSMKQKPEVFIMTHAGMKMHFAGPYKEAQFIQNLTGVKTYVAKEGFKVSIGKEISVKTLRPARFVLEHHHHHH”, the protein production is reported as “not failed”.

In the case of “MDFVFDIDGTLCFDGMSLSKEIQGILERAQIDYGHRVTFATARSYRDTIGILGDKLSLSKIIGLNGATLHENGHLVDSYYLQSDFFSTIISYCHRHQIPYFVDEVFNYATYQASKIPFIAYVDPQKRGELLEVSKIEKPIKMVLYFGDQLGRADQMLAELNRFGLSSHFFHEFEKCLYINPIAVDKGKATKKLFGNRFIAFGNDKNDISMFDAAHYSVQVGDFDELTPYANLRVSRESVHEGITTLFEKYKGIT”, the protein production is reported as “failed”.

In the case of “MNWIPLEQLLLKLHTPRAVSAAPAIDLGAVQEQALSLAAALQARGVRRLAVHLEDAVELAVALLGAWRAGASVLLPADLQAQTRQRWSSEVDLWLTDQDTPLHQLQASPLAPAELDPDTCQLSLCTSGSSGEPKRIEKNLRQLANEVVALEHLWGADLGQAWIIGSVATQHIYGLLFRVLWPLCAGRPFVRRQLPFPEDLQRASRECPAFAWVASPALLKRMGDNLDWPALSQVRRVFSSGGALPAEAASGLHQRLQQWPTEILGSSETGGIAWRQGPGLWQPFADVRLSQDADGALLIASPYLPAGHVEHTADAARIAADGRFELLGRLDRIVKLEEKRISLPMLEQALASHEWVAEARLGVIEDNRAYLGALLVLSEPGLHALRNQGRRHLTQALRQHLAGHCEALALPRRWRLVRQLPLNSQGKLPQAQVQALLLAPRPQAPEVLEQRQHEEEWQLQLAIPPDLAYFSGHFPQTPVLPGVVQVDWALALGQQLLELPGRFAGMEVLKFQQLVRPGDRIQLNLRFDAQRQKLYFAYLNDGAPCSCGRIVLEASCG”, the protein production is reported as “failed”.

In the case of “MDSMKLYDAIIGTVEKHIAPIAAKVGNQPHVRAMRDGFIVAMPFIIVGSFILIFAFPPFAEDTTFTFGRLWLDFATTHFDTIMMPFNMSMGIMTIFVSLGVAYSLAKAYKMDGITSAVLSLMCFLLVAAPAQDGSLAMKHMGGTGIFTAVMCAFFAVELYRFMKKHNITIRMPEQVPPAIARSFEVLLPVLAVFVTLYPLSIFVQTQYDMLIPDAVMAMFKPLISASNTLPAIIGALLMCQLLWFAGIHGAAIVVGLLSPIFLTNISGNIDAFVAGQPVPNIFTQPFWDFYIFIGGSGATLALVLLMSFSRSVHLKSIGRMSAVPGFFQINEPVIFGSPIVMNPTLFIPFVFAPVINATIAYFAVHLGFVGMGVATTPWTTPAIIGASWGSGWTFSPVLLVVGLLILDLLIYFPFFKMFEKQMLEQELPTTKETKQAEQPAGEGVTA”, the protein production is reported as “failed”.

With “MPGDLPMPTTMFTADELAVIRRAYAHQVMATAATTNPRIEAAFATVPREKFLGAPPWQIANLGGGNRPLPSSDLVLAYQDVLFALQPDNGVNNGSPSLHARLLAELDIQIGDRIAHIGAGTGYYSAILAELVGTSGHVYAVEMDPDLAAHAQAALAERANVSVINADGSQWPQQEVDAIYVNFAVARPAEPWIERLRPGGRLVLPLGVPRQDRPPKGGRHASHGAALRIEHGEGGFAARWIGTAYFVCANGGLTIDDNEIEALTAAFRRGGIEFVKSLLWKTEPRIGRCWHIGGQWALCYDDV” the protein production was “failed”.

Source: a protein production outcome set (Wang et al. 2014)
